We go through four molecules from patent US20140336363A1 (Hoffmann-La Roche, published 2014).

For experiment [1], the target named is T1, full-length wildtype CSF-1R (wt CSF-1R) (human, UniProt P07333 20-972). Put plainly: cell-based or functional assay.
For experiment [2], the target named is mutant CSF-1R L301S Y969F (human) (UniProt P07333). Put plainly: cell-based or functional assay.
The target in experiment [3] is CSF-1R ECD (R&D-Systems 329-MR or in-house subcloned pCMV-presS-HisAvitag-hCSF-1R-ECD) (human) (UniProt P07333). Put plainly: SPR cross-competition, 25 C; second antibody on CSF-1R held by captured Antibody 1; competitor <CSF-1R>9D11.2E8.
The target is the same in experiment [4]. Put plainly: SPR cross-competition, 25 C; second antibody on CSF-1R held by captured Antibody 1; competitor SC-02, clone 2-4A5.
Experiment [5] has the same target. Put plainly: SPR (BIACORE A100), 35 C, antibody captured, CSF-1R ECD in solution. (In general: In SPR one partner is held on a chip, and binding of the other changes the refractive index at the surface.)
Experiment [6] shares this target. Put plainly: SPR cross-competition, 25 C; second antibody on CSF-1R held by captured Antibody 1; competitor <CSF-1R>10H2.2F12.
Experiment [7] addresses huCSF-1R-huFc chimera (soluble extracellular domain) (human) (UniProt P07333). The experiment can be described thus: competition ELISA: antibody on plate-bound huCSF-1R-huFc, then 3 ng/ml CSF-1.
Experiment [8] has as its target T2, CSF-1R ECD (R&D-Systems 329-MR or in-house subcloned pCMV-presS-HisAvitag-hCSF-1R-ECD) (human, UniProt P07333 20-517).
T2 construct: also called CSF-1R (R&D-Systems Cat. No. 329-MR); human CSF-1R Extracellular Domain (comprising domains D1 to D5)
The experiment can be described thus: SPR (BIACORE A100), 35 C, antibody captured, CSF-1R ECD in solution. The protocol:
CSF-1R ECD (R&D-Systems 329-MR or in-house subcloned pCMV-presS-HisAvitag-hCSF-1R-ECD were added in various concentrations in solution. Association was measured by an CSF-1R-injection of 1.5 minutes at 35° C.; dissociation was measured by washing the chip surface with buffer for 10 minutes at 35° C. Anti CSF-IR SC-02, clone 2-4A5 (Santa Cruz Biotechnology, US; see also Sherr, C. J., et al., Cell 41 (1985) 665-676), which inhibits the ligand-receptor interaction, was used as reference control.

Another experiment has as its target T3, CSF-1R ECD (D1-D3) (human, UniProt P07333 20-296, limits assumed).
T3 construct: also called domains D1 to D3 of the extracellular domain of human CSF-1R
The description is as in WO2011070024, Example 10 (method not told here).

In experiment [9] the target is T4, huCSF-1R-huFc chimera (soluble extracellular domain) (human, UniProt P07333 20-517).
T4 construct: Captured on the plate by anti Fc-gamma; also called huCSF-1R ECDhuFc chimera; not shown: human Fc part
Put plainly: competition ELISA: antibody on plate-bound huCSF-1R-huFc, then 3 ng/ml CSF-1. The protocol: At the beginning, plates were coated with […] goat F(ab′)₂ biotinylated anti Fcγ (Jackson ImmunoResearch., Cat. No. 109-006-170) for 1 hour (h).
Thereafter the wells were blocked with PBS supplemented with 0.2% Tween®-20 and 2% BSA (Roche Diagnostics GmbH, DE) for 0.5 h. 75 ng/ml of huCSF-1R-huFc chimera (soluble extracellular domain) was immobilized to plate for 1 h. Then dilutions of purified antibodies in PBS/0.05% Tween20/0.5% BSA were incubated for 1 h. After adding a mixture of 3 ng/ml CSF-1 (Biomol, DE, Cat. No. 60530), 50 ng/ml biotinylated anti CSF-1 clone BAF216 (R&D Systems, UK) and 1:5000 diluted streptavidin HRP (Roche Diagnostics GmbH, DE, Cat. No. 11089153001) for 1 h the plates were washed 6 times with PBST. Anti CSF-IR SC-02, clone 2-4A5 (Santa Cruz Biotechnology, US), which inhibits the ligand-receptor interaction, was used as positive control. Plates were developed with freshly prepared BM Blue® POD substrate solution (BM Blue®:3,3″-5,5″-Tetramethylbenzidine, Roche Diagnostics GmbH, DE, Cat. No. 11484281001) for 30 minutes at RT. Absorbance was measured at 370 nm. […] Anti CSF-IR SC-02, clone 2-4A5 (Santa Cruz Biotechnology, US), which inhibits the ligand-receptor interaction, was used as reference control.
In general terms: In an ELISA, binding on a coated surface is turned into a signal by an enzyme label.

In experiment [10] the target is T1, full-length wildtype CSF-1R (wt CSF-1R). The experiment can be described thus: cell-based or functional assay. The source holds these as a separate data set.
For experiment [11] the target is unchanged. Put plainly: cell-based or functional assay. This is another data set of the same source.

Where two headings read alike, the source gives them in different places.

Sequence of mutant CSF-1R L301S Y969F (human) (P07333 20-972 L301S/Y969F limits assumed): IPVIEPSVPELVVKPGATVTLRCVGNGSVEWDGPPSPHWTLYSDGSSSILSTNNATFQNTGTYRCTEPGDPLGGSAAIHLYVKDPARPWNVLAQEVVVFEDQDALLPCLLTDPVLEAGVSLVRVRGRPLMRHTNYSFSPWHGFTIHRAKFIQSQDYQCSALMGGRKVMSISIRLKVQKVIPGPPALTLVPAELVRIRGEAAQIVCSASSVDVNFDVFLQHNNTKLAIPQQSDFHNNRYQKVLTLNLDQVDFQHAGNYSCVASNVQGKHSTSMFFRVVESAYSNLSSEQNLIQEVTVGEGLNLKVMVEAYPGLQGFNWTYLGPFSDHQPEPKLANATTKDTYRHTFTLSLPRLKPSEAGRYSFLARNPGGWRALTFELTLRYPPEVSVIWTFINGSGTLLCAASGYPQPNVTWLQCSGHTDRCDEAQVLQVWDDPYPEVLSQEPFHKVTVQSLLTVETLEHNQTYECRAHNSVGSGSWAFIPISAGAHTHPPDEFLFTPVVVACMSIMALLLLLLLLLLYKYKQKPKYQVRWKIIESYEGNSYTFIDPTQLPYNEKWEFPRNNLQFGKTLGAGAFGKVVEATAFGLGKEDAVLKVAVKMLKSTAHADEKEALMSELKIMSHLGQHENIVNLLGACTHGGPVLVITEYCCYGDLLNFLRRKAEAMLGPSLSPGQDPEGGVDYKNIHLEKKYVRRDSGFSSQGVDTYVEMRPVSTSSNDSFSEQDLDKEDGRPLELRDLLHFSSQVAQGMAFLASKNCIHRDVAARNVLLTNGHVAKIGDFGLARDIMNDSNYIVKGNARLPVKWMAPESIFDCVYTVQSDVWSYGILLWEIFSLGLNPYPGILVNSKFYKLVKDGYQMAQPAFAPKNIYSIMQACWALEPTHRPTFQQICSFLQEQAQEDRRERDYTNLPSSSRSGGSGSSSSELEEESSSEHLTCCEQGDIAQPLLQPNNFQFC
T1 sequence (P07333 20-972 limits assumed): as the sequence (P07333 20-972 L301S/Y969F limits assumed) above, with S282L, F950Y counted along it
T2 sequence (P07333 20-517 limits assumed): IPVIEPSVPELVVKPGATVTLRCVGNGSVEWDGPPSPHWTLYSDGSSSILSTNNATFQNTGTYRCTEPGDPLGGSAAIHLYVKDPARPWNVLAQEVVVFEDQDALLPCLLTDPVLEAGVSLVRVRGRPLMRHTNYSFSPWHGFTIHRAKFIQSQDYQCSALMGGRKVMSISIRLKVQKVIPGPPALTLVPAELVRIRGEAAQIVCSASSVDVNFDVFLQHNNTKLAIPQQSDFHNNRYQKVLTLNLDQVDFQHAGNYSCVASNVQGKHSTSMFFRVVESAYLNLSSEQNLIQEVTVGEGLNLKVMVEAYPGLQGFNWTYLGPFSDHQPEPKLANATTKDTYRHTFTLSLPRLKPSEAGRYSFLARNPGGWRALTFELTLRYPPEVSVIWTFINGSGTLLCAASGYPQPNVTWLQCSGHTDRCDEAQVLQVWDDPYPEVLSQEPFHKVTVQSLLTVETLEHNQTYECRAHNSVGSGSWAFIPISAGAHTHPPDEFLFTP
Sequence of CSF-1R ECD (R&D-Systems 329-MR or in-house subcloned pCMV-presS-HisAvitag-hCSF-1R-ECD) (human) (P07333 20-517 limits assumed): as above
T3 sequence (P07333 20-296 limits assumed): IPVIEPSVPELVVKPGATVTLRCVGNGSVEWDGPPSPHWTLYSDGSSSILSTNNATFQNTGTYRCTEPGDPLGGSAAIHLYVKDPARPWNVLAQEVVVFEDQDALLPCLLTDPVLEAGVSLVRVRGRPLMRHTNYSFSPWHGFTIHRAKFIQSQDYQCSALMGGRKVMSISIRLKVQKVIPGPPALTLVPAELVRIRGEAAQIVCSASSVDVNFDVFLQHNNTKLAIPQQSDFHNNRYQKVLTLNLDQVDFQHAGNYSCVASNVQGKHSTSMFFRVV
T4 sequence (P07333 20-517, change not shown): as the sequence (P07333 20-517 limits assumed) above
Sequence of huCSF-1R-huFc chimera (soluble extracellular domain) (human) (P07333 20-517, change not shown): as the sequence (P07333 20-517 limits assumed) above

In [1], “Anti CSF-1R SC-02, clone 2-4A5 (Santa Cruz Biotechnology, US) (antibody)” registered a % Inhibition of growth of NIH3T3-wtCSF-1R cells, 10 µg/ml antibody of 38%; a % inhibition of CSF-1 induced growth of BeWo cells, 10 µg/ml antibody concentration of 40%; a % survival of NIH3T3-wtCSF-1R cells, 10 µg/ml antibody (CellTiterGlo) of 62%; an IC50 CSF-1R Phosphorylation (CSF-1-induced, NIH3T3-CSF-1R cells, ELISA of lysate) of 0.412 µg/mL. This molecule yielded an IC50 of inhibition of survival of human monocytes with huCSF-1 (CellTiterGlo) in [1] of 2.4 nM. In experiment [2], the % Inhibition of growth of NIH3T3-mutant CSF-1R cells, 10 µg/ml antibody was 34% and the % survival of NIH3T3-mutant CSF-1R cells, 10 µg/ml antibody (CellTiterGlo) stood at 66%. In [3], the percentage (%) of expected binding response is 37%. In addition, the percentage (%) of expected binding response in experiment [4] was -2%. In [5], the Kd was 2.73 nM, the koff is 0.00139 s⁻¹, the kon was 509000 M⁻¹ s⁻¹ and the t1/2 was found to be 8.31 min. The percentage (%) of expected binding response in experiment [6] stood at 42%. In experiment [7], the IC50 turned out to be 0.0309 µg/mL.

For the molecule “goat polyclonal anti-CSF-1R antibody ab10676 (abcam)”, the percentage of inhibition the growth of NIH3T3-mutant CSF-1R L301S Y969F recombinant cells, up to 20 µg/ml in experiment [2] is below 0%.

B1: <CSF-1R>10H2.2F12 (antibody, V domains shown)
VH: QVQLKQSGPGLVQPSQSLSITCTVSGFSLTTYGINWVRLSPGKGLEWLGMIWRGGNTDYNAAFMSRLTITKDNSKNHVFFQLNSLQPDDTAIYFCAKSGGLRLYYAMDYWGQGTSVTVSS
VL: DVVMTQPPLSLPVSLGDQASISCRSSQSLVHSNGNTYLHWYLQKPGQSPKLLIYKVSNRLSGVPDRFSGSGSGTDFTLKISRVEAEDLGVYFCSQSSHVPWTFGGGTKLEIRR
notes: Mouse monoclonal antibody from a hybridoma
For B1, in experiment [8], the affinity, expressed as Kd, was 0.78 nM; the koff was found to be 0.0004 s⁻¹; the kon worked out at 520000 M⁻¹ s⁻¹; the t1/2 turned out to be 28.6 min. In experiment [1], this molecule gave a % Inhibition of growth of NIH3T3-wtCSF-1R cells, 10 µg/ml antibody of 97%; a % inhibition of CSF-1 induced growth of BeWo cells, 10 µg/ml antibody concentration of 100%; a % survival of NIH3T3-wtCSF-1R cells, 10 µg/ml antibody (CellTiterGlo) of 3%; an IC50 CSF-1R Phosphorylation (CSF-1-induced, NIH3T3-CSF-1R cells, ELISA of lysate) of 0.0445 µg/mL. Further, in experiment [1], the IC50 of inhibition of survival of human monocytes with huCSF-1 (CellTiterGlo) is 0.6 nM. In [2], this molecule came in with a % Inhibition of growth of NIH3T3-mutant CSF-1R cells, 10 µg/ml antibody of 65% and a % survival of NIH3T3-mutant CSF-1R cells, 10 µg/ml antibody (CellTiterGlo) of 35%. Also, the binding result in the experiment with CSF-1R ECD (D1-D3) is listed as “no binding”.

B2: <CSF-1R>9D11.2E8 (antibody, V domains shown)
VH: DVKLVESGGGLVKLGGSLKLSCAASGFTFSSYYMSWIRQTPDKRLELVAAIKTNGDNFDYPDTVKGRFTISRDNAKNTLYLQMNSLKSEDTALYYCARSQLLRYYAMDYWGQGTSVTVSS
VL: DVVMTQTPLSLPVSLGDQASISCRSSQSLVHSNGNTYLHWYLQKPGQSPKLLIYKVSNRFSGVPDRFSGSGSGTDFTLKISSVEAEDLGVYFCSQSSHVPWTFGGGTKLEIKR
notes: Mouse monoclonal antibody from a hybridoma (NMRI mice), captured by anti mouse Fc-gamma in SPR; also called deposited antibody DSM ACC2920
Consider B2, for which, in [8], binding was characterised by a dissociation constant (Kd) of 0.77 nM, the koff amounted to 0.00036 s⁻¹, the association rate constant (kon) was found to be 470000 M⁻¹ s⁻¹ and the t1/2 was found to be 32 min. The same molecule registered an IC50 in experiment [9] of 0.01 µg/mL. In addition, the binding result with CSF-1R ECD (D1-D3) is “no binding”. For the same molecule, the “IC50 CSF-1R Phosphorylation (CSF-1-induced, NIH3T3-CSF-1R cells, ELISA of lysate)” value in [10] worked out at 0.0728 µg/mL. Besides, in [11], the “IC50 of inhibition of survival of human monocytes with huCSF-1 (CellTiterGlo)” value was found to be 0.7 nM.

The Kd is the free concentration of one partner at which half of the binding sites on the other are occupied at equilibrium, for simple one-to-one binding. High values mean weaker binding, low ones tighter binding. The term koff denotes the first-order rate constant of dissociation. Low readings indicate slow dissociation, high ones fast dissociation. The kon is the rate constant with which the complex forms. Higher therefore signals faster complex formation. In general, IC50 refers to the concentration at which inhibition is half-maximal. Read a low IC50 as greater potency in that assay.
